Results on two substances are retold here after patent US20030199040A1.

The target in experiment [1] is mAcPL and mIL-1Rrp1 cotransfected on cells (COS7 or S49.1) (murine) (UniProt Q61098). Put plainly: cell-based or functional assay.
Experiment [2] has as its target mIL-18 (purchased from PeproTech) (murine (printed as mIL-18)) (UniProt P70380). Put plainly: cell-based or functional assay.

mAcPL and mIL-1Rrp1 cotransfected on cells (COS7 or S49.1) (murine), sequence (Q61098 19-537, chain 1 of 2): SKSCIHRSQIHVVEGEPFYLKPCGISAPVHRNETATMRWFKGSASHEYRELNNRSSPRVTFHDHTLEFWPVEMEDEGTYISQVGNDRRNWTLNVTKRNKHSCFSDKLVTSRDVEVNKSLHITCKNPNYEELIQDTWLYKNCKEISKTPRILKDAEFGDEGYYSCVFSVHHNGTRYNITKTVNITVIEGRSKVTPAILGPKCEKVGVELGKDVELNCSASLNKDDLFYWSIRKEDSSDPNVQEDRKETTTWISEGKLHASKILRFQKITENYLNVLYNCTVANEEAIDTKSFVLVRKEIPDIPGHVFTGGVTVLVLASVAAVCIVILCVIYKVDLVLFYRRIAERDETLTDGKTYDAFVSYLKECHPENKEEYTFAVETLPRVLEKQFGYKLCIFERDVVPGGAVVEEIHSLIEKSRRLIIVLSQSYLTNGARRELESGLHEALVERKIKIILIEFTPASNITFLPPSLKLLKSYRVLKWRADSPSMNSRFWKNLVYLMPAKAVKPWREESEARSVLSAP
mAcPL and mIL-1Rrp1 cotransfected on cells (COS7 or S49.1) (murine), sequence (chain, as listed by the source, chain 2 of 2): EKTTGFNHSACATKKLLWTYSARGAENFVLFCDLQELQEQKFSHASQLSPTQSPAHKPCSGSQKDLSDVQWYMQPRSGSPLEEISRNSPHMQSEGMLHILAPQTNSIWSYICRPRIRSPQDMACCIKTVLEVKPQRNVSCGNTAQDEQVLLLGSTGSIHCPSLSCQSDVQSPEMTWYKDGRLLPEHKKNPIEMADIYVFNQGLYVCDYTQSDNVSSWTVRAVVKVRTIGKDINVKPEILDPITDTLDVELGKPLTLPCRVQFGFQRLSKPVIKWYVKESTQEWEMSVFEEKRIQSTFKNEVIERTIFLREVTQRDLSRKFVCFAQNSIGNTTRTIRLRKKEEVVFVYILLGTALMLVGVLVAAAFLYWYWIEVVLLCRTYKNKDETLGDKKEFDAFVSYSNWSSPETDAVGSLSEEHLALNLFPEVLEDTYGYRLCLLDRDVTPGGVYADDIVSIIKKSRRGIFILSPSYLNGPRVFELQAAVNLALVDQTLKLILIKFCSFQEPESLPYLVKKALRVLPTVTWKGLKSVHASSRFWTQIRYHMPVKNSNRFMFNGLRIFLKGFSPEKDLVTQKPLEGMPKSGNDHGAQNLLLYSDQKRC
mIL-18 (purchased from PeproTech) (murine (printed as mIL-18)), sequence (P70380 36-192 limits assumed): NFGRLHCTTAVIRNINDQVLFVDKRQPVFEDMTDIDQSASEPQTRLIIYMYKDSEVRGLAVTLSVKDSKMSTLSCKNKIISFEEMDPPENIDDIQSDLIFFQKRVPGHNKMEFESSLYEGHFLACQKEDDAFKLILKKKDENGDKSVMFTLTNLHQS

For the substance “mIL-18 (purchased from PeproTech) (from UniProt P70380 36-192) (ligand)”, in experiment [1], the increase in NFκB DNA binding activity (NFκB-Luc luciferase reporter), COS cells, 40 ng/mL IL-18 for 4 hours stood at 10 fold and the increase in NFκB DNA binding activity (NFκB-Luc luciferase reporter), S49.1 cells, 40 ng/mL IL-18 for 4 hours was 300 fold.

In the case of “heterogeneous mIL-1Rrp1-Fc+mAcPL-Fc protein mixture (homodimers of mIL-1Rrp1-Fc, homodimers of mAcPL-Fc, and heterodimeric mIL-1Rrp1-Fc/mAcPL-Fc molecules) (from UniProt Q61098 20-322; Q9Z2B1 20-356) (Fc fusion)”, in experiment [2], the inhibition of mIL-18 induced NFκB-luciferase activity in Cos7 cells transfected with mIL-1Rrp1 and mAcPL (10 ng/ml mIL-18 preincubated with the protein) worked out at 87%; the luciferase activity (RLU) at 20 ug/ml and 50 ug/ml of the protein mixture; uninduced cells 3×10e3 RLU, mIL-18 without receptor-Fc 25×10e3 RLU was 6000 RLU.
